Assay results reported in the PETadex activity labels (doi:10.1016/j.ijbiomac.2024.137732).

How the values were obtained:
[1] = substrate: gfPET; experiment: Proxy for plastic degradation [Released monomer concentration (HPLC/LC-MS) (TPA+MHET+BHET)]
[2] = substrate: gfPET; experiment: Proxy for plastic degradation [Released monomer concentration (HPLC/LC-MS) (MHET+BHET+TPA)]; conditions: pH 9

B1: unnamed (protein)
chain: ASEQSTKNITNVTTESDVSVYRDLMLVAGKYVFYPADFETTTKKYPVVTWANGSWCPIQTYLPIIYGLVKAGYIVVADTDLLTDDGKSTVDSVSYIIKQNKNKNSMFYKRINTKQIGSTGHSLGGQAAVNASAKDSRIKAIVSLAGKSVADEAAKVTVPALYLSGTLDMIVPSKDYVYPSYKASKGPAAYASFNNMVHFGVWIAPGNYVKYTVAWFDVYLKGDKSKLSMFKKGGDLSTDDFWINYESKNL
[1]; pH 6
  Proxy for plastic degradation: 2.5 µM
[1]; pH 7
  Proxy for plastic degradation: 5 µM
[1]; pH 8
  Proxy for plastic degradation: 10 µM
[1]; pH 9
  Proxy for plastic degradation: 15 µM
[1]; pH 9, 25 °C
  Proxy for plastic degradation: 4 µM
[1]; pH 9, 30 °C
  Proxy for plastic degradation: 6.5 µM
[1]; pH 9, 35 °C
  Proxy for plastic degradation: 12 µM
[1]; pH 9, 37 °C
  Proxy for plastic degradation: 16 µM
[1]; pH 9, 40 °C
  Proxy for plastic degradation: 20 µM
[1]; pH 9, 45 °C
  Proxy for plastic degradation: 11 µM
[1]; pH 10
  Proxy for plastic degradation: 25 µM
[1]; pH 11
  Proxy for plastic degradation: 50 µM
[2]
  Proxy for plastic degradation: 17.5 µM

B2: unnamed (protein)
chain: QELQEDWWRTGKYAIEDIADPVYSLDEEYMRDTPNLYLPKGKTGKLPVVIVIHGWGGTKEQMQPTAQLLASHGMLVLNYTAVDQNQPFQWLDGLVAAYTLLEGENRRPGSKIYNRVDFQRIGLLGHSMGAAGVLHIAAMEKPNGLRGKIKTVVSMMPYHGTTSTFTDNIAGGKDKLGCDISSTPNATLIISAELDPTNEPIGGYEFYQTLKRNKRVFFSLKGAKHIDWMKERDKKYSVAMPVITAWMLTYLCGETQYESYFREGGHYFEKWVRETLKGNVKVGRGEFPAFEIKEP
[2]
  Proxy for plastic degradation: 4 µM

B3: unnamed (protein)
chain: QELQENWWSNGKYAIEDVADPVYSFDEEYMKDVPNIYLPIGKTGKLPVVIVVHGWAAYKEQMHDTAQLLASHGMLVLVYTAMDQNQPFQWLDGIIAAYTLLEGENRRPGSKIHNRVDFQRIGLLGHSMGGTGVLFSAAMEKPNGLRGKIKTVVSLMPYHGTTNFISDAVAGGKDKLGCDVSATPNATLIISGEVDEVNEPIGGYEFYQTLTQNKRVFFSMKGTHHNDWRNKEGKESENYPIVMPVVSSWMLAYLCGERQYESFFKEGGLYFEKWIRPTLKGNVKVGRGEFPAFEIKEP
[2]
  Proxy for plastic degradation: 4 µM

B4: unnamed (protein)
chain: QTIEMAQSQIDKLAKIETDSLASYADSYTYDEEYFAENEPATIYYPKNLEGKVPAVIVVHGFNCKQKFLQKIPQHLSSHGFICITYTALDQKRPFQWPPGLMAAYEILRGESMRPDSPIYDHVDLDAVALVGHSMGGAGVLHTAMMPYPNGLRGKIKTVVGLNPYNGGPLMAEVGGGANDNLGDDLSHLDIPTMIVTGSYDIVAFPWKSFAFYNSLRGPAKHAFLSIDRMDHADWYFIPSEPKYPILRAILYSWLRAYLADDSEYRDYFVDRPGSSFDKYLKPLLSNTPNPLTRGGESFPPYVLSEEEDPLGTTN
[2]
  Proxy for plastic degradation: 2.4 µM

B5: unnamed (protein)
chain: NADQFVQFESAAVKPTQFQERNARARGEAVNAVPGTPLQGYLTRPQGEGPFPAIVILHGCAGIHPSVKETWPERLASWGYVVLVVDSFSTRGIQNTCNNLLVDRVYDAYGALEFLSNYSFVDPKRIAVMGFSAGGIATLEAVQFGGAERLMEHKFKAAVAYYPICKAANGDMAVPTLVLVGDLDDWSPAEQCRTMMKQRSGAGSPVQLNVYKGAHHAFDAPEFKTGFEAYGHWIEYNGIAADQSVSDVHAFLRGVFGN
[2]
  Proxy for plastic degradation: 3.8 µM
